Measurements taken from patent publication US20200055913A1 (University of California, published 2020).

Columns and labels:
[1] = target: his-maltose binding protein (MBP) (UniProt P0AEX9 27-396 = MBP); assay: pull-down on nickel-NTA agarose beads, anti-hRetn Western blot
Protocol: (§1) Given that there are no publicly available CAP1 deficient mice, a direct protein-protein interaction of hRetn to TLR4 or CAP1 was investigated as an alternative to cell binding assays. A pull-down assay was performed utilizing recombinant hRetn with histidine (his)-tagged human TLR4, his-human CAP1 or his-maltose binding protein (MBP) as a negative control (FIG. 4G). In the pull-down elution, Western blot using anti-his antibody confirmed that his-MBP, his-TLR4 and his-CAP1 are all pulled down by the nickel-NTA agarose beads. In addition, when blotting the elution fraction with anti-hRetn antibody, hRetn was only present in the elution with his-TLR4, not his-CAP1 or his-MBP. To ensure that this interaction was not due to low-level LPS contamination, this pull-down assay was also performed with mammalian cell-derived hRetn. Similar to E. coli-derived hRetn, mammalian-derived hRetn is only detected when pulled down with his-TLR4, not his-CAP1 or his-MBP.
(§2) Pull-down Assay. […] His-MBP, His-TLR4 and His-CAP1 were detected by anti-His antibody (Abcam), and hRetn was detected by anti-hRetn antibody (donated by Mitchell Lazar) by Western Blot. […]

[2] = target: T1, his-human CAP1 (cyclic adenylate associated protein 1) (human, UniProt Q01518 1-475, limits assumed); assay: as above
T1 construct: Proposed receptor of hRetn, tested in the pull-down; also called his-CAP1; His-CAP1; not shown: His tag
Protocol: as §1, §2

[3] = target: T2, human TLR4 on human PBMC (CD14+CD11b+ monocytes) (human, UniProt O00206 24-839); assay: competitive hRetn/LPS binding assay on human PBMC, flow cytometry
T2 construct: whole, on cells
Protocol: With reference to FIG. 5J, the functional ability of the hRetn N-peptide to block LPS binding and function was tested. The binding experiments were performed on ice to rule out effects of LPS-induced TLR4 endocytosis, which would have added complexity for interpretation of the data. Pre-incubation of human PBMC with the hRetn N-peptide or full-length hRetn inhibited LPS binding to CD14+CD11 b+ monocytes. […] An additional formulation of human resistin fused to the humanFc Ig fragment was also effective at inhibiting proinflammatory cytokines and promoting IL-10 expression in primary macrophage cultures (FIG. 7C).
Human PBMCs. Human buffy coat was purchased from Zen-bio. Buffy coat was overlaid on top of Histopaque-1077 and spun at 700g at 25° C. with no brake and PBMCs were recovered from the interphase. PBMCs were plated in 96-well plates and stimulated with mammalian-derived human resistin (1 μg/mL, LifeSpan Biosciences) or hRetn N-peptide (1 μg/mL). After 24 hours, ultrapure LPS (100 ng/mL, Invivogen) was added and supernatants recovered for ELISA at 24 hours. Where indicated, cells were incubated for 4 hours with STAT3 (5, 15-DPP, 50 μM) or TBK1 (BX-795, 1 μM) inhibitors prior to hRetn treatment. For the hRetn competitive binding assay, 1×10^6 cells were incubated with recombinant hRetn (0.5 μg), washed in PBS then incubated with 0.5 μg LPS-biotin (incubations were 30 minutes on ice). […]

T1 sequence (Q01518 whole entry): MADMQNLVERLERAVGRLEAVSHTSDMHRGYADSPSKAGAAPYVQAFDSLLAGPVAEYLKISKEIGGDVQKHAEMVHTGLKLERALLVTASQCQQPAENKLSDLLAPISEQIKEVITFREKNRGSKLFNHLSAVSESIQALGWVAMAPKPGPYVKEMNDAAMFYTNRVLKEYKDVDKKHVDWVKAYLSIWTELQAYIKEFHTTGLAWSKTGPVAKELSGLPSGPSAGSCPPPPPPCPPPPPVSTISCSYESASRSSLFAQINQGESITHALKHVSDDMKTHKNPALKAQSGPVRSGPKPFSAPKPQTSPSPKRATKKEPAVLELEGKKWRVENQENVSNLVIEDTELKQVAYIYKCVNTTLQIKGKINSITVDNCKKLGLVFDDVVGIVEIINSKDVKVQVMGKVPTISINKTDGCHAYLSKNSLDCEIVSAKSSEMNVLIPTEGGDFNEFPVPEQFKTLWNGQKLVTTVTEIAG
T2 sequence (O00206 24-839): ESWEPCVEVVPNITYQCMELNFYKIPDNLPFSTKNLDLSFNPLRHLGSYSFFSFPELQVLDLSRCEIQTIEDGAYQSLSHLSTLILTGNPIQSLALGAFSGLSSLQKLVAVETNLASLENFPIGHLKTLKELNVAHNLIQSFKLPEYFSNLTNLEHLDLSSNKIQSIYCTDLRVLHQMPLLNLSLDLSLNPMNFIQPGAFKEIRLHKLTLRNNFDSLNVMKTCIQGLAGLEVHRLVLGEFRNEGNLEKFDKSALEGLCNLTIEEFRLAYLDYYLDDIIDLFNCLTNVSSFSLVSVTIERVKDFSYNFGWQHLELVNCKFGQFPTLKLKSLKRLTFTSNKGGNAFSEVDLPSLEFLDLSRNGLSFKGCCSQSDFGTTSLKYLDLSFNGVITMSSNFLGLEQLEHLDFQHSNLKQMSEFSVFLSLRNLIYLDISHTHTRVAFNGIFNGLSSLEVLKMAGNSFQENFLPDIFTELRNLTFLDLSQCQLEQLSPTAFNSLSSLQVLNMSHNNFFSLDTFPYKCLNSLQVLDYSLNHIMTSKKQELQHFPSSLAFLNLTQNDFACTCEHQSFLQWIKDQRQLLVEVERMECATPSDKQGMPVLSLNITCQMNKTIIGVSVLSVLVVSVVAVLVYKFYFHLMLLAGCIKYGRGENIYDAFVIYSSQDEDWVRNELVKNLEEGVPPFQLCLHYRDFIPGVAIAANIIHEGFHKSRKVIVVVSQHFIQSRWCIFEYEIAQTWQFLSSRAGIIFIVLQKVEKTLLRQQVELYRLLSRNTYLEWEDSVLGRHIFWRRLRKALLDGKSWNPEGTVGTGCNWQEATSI

binding result [1]	binding result [2]	binding result [3]	Binder
no binding	no binding		recombinant human resistin (hRetn), E. coli-derived (Peprotech) (ligand, Bought protein (Peprotech), made in bacteria; also called recombinant hResistin; E. coli-derived hRetn) SSKTLCSMEEAINERIQEVAGSLIFRAISSIGLECQSVTSRGDLATCPRGFAVTGCTCGSACGSWDVRAETTCHCQCAGMDWTGARCCRVQP
		binds	mammalian cell-derived human resistin (hRetn), 293T cell-derived (LifeSpan Biosciences) (ligand, Bought protein (LifeSpan Biosciences); also called mammalian-derived hRetn; 293T derived hRetn) KTLCSMEEAINERIQEVAGSLIFRAISSIGLECQSVTSRGDLATCPRGFAVTGCTCGSACGSWDVRAETTCHCQCAGMDWTGARCCRVQP
